Sequences and labels used below:
B1: PR007296 (antibody, human IgG1, V domains shown)
VH: EVQLVESGGGLVKPGGSLRLSCVASGFTFSDYYMSWFRQAPGKGLEWVSYISGSGTTIDYADSVKGRFTISRDNAKNSLYLQMNSLRAEDTAVYYCAREREAVAGTLDFDNWGQGTPVTVSS
notes: HCAb, heavy chain only, human IgG1 Fc; also called R1016P147B10
B2: PR001758 (antibody, human IgG1, V domains shown)
VH: EVQLLESGGGLVQLGGSLRLSCAASGFTFSRYAMTWVRQAPEKGLEWVSSISGSGDDTYYGDSVKGRFTISRDNSQNTVYLQMNSLRAEDTAVYFCAKEKAGTTGDYYYNVDVWGQGTTVTVSS
notes: HCAb, heavy chain only, human IgG1 Fc; also called 1016P0010B11
B3: PR001759 (antibody, human IgG1, V domains shown)
VH: EVQLLESGGGLVQPGGSLRLSCAASGFTFSSYAMSWFRQPPETGLQWVSSIGGSGGDTYYADSVKGRFTISRDNSKNTLYLQMNSLRAEDTAVYYCAKEGSNGTDDNYYDVDVWGQGTTVTVSS
notes: HCAb, heavy chain only, human IgG1 Fc; also called 1016P0010D7
B4: PR007295 (antibody, human IgG1, V domains shown)
VH: EVQLVESGGGLVKPGGSLRLSCAASGFTFSDYYMSWIRQAPGKGLEWVSYISNNGSTIYYADSVKGRFTISRDNAKNSLYLQMNSLRAEDTAVYYCARVRPGGSGNYWDWFDPWGQGTMVTVSS
notes: HCAb, heavy chain only, human IgG1 Fc; also called R1016P147A09
B5: PR007291 (antibody, human IgG1, V domains shown)
VH: B4 VH with A23V, A24T, S35N, L45Q, N53G, M119P
notes: HCAb, heavy chain only, human IgG1 Fc; also called R1016P145C07
B6: PR007297 (antibody, human IgG1, V domains shown)
VH: B4 VH with N53R, N54S, M119L
notes: HCAb, heavy chain only, human IgG1 Fc; also called R1016P149F10
B7: PR007300 (antibody, human IgG1, V domains shown)
VH: B4 VH with A23T, A24T, S35N, I37V, M119P
notes: HCAb, heavy chain only, human IgG1 Fc; also called R1016P156E05
B8: PR007286 (antibody, human IgG1, V domains shown)
VH: EVQLVESGGGLVKPGGSLRLSCAASGFTFSDYYMSWIRQAPGKGLEWVSYISSSGSTIYYADSVKGRFTISRDNAKNSLYLQMNSLRAEDTAVYYCARVKPVAGTWDWFDPWGQGTPVTVSS
notes: HCAb, heavy chain only, human IgG1 Fc; also called R1016P142D03
B9: PR007299 (antibody, human IgG1, V domains shown)
VH: EVQLVESGGGLVKPGGSLRLSCAASGFTFSDYQMSWLRQAPGKGLEWVSYISSSGRTIYYADSVKGRFTISRDNAKNSVSLQMNSLRAEDTAVYYCAREGRFFPGQGTPVTVSS
notes: HCAb, heavy chain only, human IgG1 Fc; also called R1016P149H12
B10: PR007143 (bispecific antibody, human IgG1, kappa)
light: DIQMTQSPSTLSASVGDRVTVTCRASQSIYIWLAWYQQKPGKAPNLLIYKASSLETGVPSRFSGSGSGTEFTLTISSLQPDDFATYYCQQYYGSSRTFGQGTKVEIKRTVAAPSVFIFPPSDEQLKSGTASVVCLLNNFYPREAKVQWKVDNALQSGNSQESVTEQDSKDSTYSLSSTLTLSKADYEKHKVYACEVTHQGLSSPVTKSFNRGEC
heavy: EVQLVESGGGLVQPGGSLRLSCAASGFTFSSYWMSWVRQAPGKGLEWVANIKQEGSEKYYVDSVKGRFTISRDNAKNSLYLQMNSLRAEDTAVYYCARDRAVAGAFDIWGQGTMVTVSSASTKGPSVFPLAPSSKSTSGGTAALGCLVKDYFPEPVTVSWNSGALTSGVHTFPAVLQSSGLYSLSSVVTVPSSSLGTQTYICNVNHKPSNTKVDKKVEPKSCDKTHTCPPCPAPEAAGAPSVFLFPPKPKDTLMISRTPEVTCVVVDVSHEDPEVKFNWYVDGVEVHNAKTKPREEQYNSTYRVVSVLTVLHQDWLNGKEYKCKVSNKALPAPIEKTISKAKGQPREPQVYTLPPSREEMTKNQVSLTCLVKGFYPSDIAVEWESNGQPENNYKTTPPVLDSDGSFFLYSKLTVDKSRWQQGNVFSCSVMHEALHNHYTQKSLSLSPGGGSGGSEVQLVESGGGLVKPGGSLRLSCVASGFTFSDYYMSWFRQAPGKGLEWVSYISGSGTTIDYADSVKGRFTISRDNAKNSLYLQMNSLRAEDTAVYYCAREREAVAGTLDFDNWGQGTPVTVSS
notes: PD-L1x4-1BB IgG-VH: PR000265 + VH of PR007296 at heavy-chain C-terminus
B11: PR007142 (bispecific antibody, human IgG1, kappa)
light: B10 light
heavy: EVQLVESGGGLVQPGGSLRLSCAASGFTFSSYWMSWVRQAPGKGLEWVANIKQEGSEKYYVDSVKGRFTISRDNAKNSLYLQMNSLRAEDTAVYYCARDRAVAGAFDIWGQGTMVTVSSASTKGPSVFPLAPSSKSTSGGTAALGCLVKDYFPEPVTVSWNSGALTSGVHTFPAVLQSSGLYSLSSVVTVPSSSLGTQTYICNVNHKPSNTKVDKKVEPKSCDKTHTCPPCPAPEAAGAPSVFLFPPKPKDTLMISRTPEVTCVVVDVSHEDPEVKFNWYVDGVEVHNAKTKPREEQYNSTYRVVSVLTVLHQDWLNGKEYKCKVSNKALPAPIEKTISKAKGQPREPQVYTLPPSREEMTKNQVSLTCLVKGFYPSDIAVEWESNGQPENNYKTTPPVLDSDGSFFLYSKLTVDKSRWQQGNVFSCSVMHEALHNHYTQKSLSLSPGGGSGGSEVQLVESGGGLVKPGGSLRLSCAASGFTFSDYYMSWIRQAPGKGLEWVSYISNNGSTIYYADSVKGRFTISRDNAKNSLYLQMNSLRAEDTAVYYCARVRPGGSGNYWDWFDPWGQGTMVTVSS
notes: PD-L1x4-1BB IgG-VH: PR000265 + VH of PR007295 at heavy-chain C-terminus
B12: PR007149 (bispecific antibody, human IgG1, kappa)
light: B10 light
heavy: B11 heavy with A477T, A478T, S489N, I491V, M573P
notes: PD-L1x4-1BB IgG-VH: PR000265 + VH of PR007300 at heavy-chain C-terminus
B13: PR007146 (bispecific antibody, human IgG1, kappa)
light: B10 light
heavy: B10 heavy with V477A, F491V, G507S, T510S, Y534F, Q536E, A556E, P571L
notes: PD-L1x4-1BB IgG-VH: PR000265 + VH of PR007298 at heavy-chain C-terminus
B14: PR007145 (bispecific antibody, human IgG1, kappa)
light: B10 light
heavy: B11 heavy with N507R, N508S, M573L
notes: PD-L1x4-1BB IgG-VH: PR000265 + VH of PR007297 at heavy-chain C-terminus
B15: PR007138 (bispecific antibody, human IgG1, kappa)
light: B10 light
heavy: B11 heavy with A477V, A478T, S489N, L499Q, N507G, M573P
notes: PD-L1x4-1BB IgG-VH: PR000265 + VH of PR007291 at heavy-chain C-terminus

Changes are numbered by the printed parent chain.

The target of one assay is 4-1BB on HEK293/4-1BB/NF-kb reporter cells. As to the kind of experiment: cell-based or functional assay.
Take B1: the “EC50, NF-kb luciferase reporter, CHO-K1/CD32b crosslinking” value (from here on “EC50, NF-kb luciferase reporter”) is less than 800 pM.

On to B2, for which the “EC50, NF-kb luciferase reporter” value was less than 800 pM.

For the molecule B3, the “EC50, NF-kb luciferase reporter” value was less than 800 pM.

On to B4, for which the “EC50, NF-kb luciferase reporter” value was less than 800 pM.

B5: the “EC50, NF-kb luciferase reporter” value was less than 800 pM.

On to B6, for which the “EC50, NF-kb luciferase reporter” value is less than 800 pM.

Take B7: the “EC50, NF-kb luciferase reporter” value was less than 800 pM.

As to B8, the “EC50, NF-kb luciferase reporter” value is less than 800 pM.

For the molecule B9, the “EC50, NF-kb luciferase reporter” value is less than 800 pM.

In the next assay the target is T1, human 4-1BB on CHO-K1 cells (human, UniProt Q07011 24-255).
T1 construct: whole, on cells; also called CHO-K1/hu 4-1BB; CHO-K1/hu4-1BB
T1 sequence (Q07011 24-255): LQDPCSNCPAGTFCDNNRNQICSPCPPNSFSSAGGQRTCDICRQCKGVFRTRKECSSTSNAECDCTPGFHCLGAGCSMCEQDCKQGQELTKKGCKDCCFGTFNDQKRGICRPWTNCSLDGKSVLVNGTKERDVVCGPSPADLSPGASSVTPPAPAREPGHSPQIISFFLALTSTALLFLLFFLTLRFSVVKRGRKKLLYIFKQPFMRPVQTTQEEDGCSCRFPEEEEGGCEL
Kind of assay: FACS, CHO-K1/hu4-1BB cells. On the procedure:
The binding abilities of the antibody molecules to a CHO-K1 cell strain highly expressing human 4-1BB (CHO-K1/hu4-1BB, GenScript, M00538) and a CHO-K1 cell strain highly expressing cynomolgus monkey 4-1BB (CHO-K1/cyno4-1BB, GenScript, M00569) were determined by flow cytometry FACS. Specifically, the cells were digested and resuspended in a complete medium, and the cell density was adjusted to 2×10⁶ cells/mL. Then, the cells were seeded in a 96-well V-bottom plate (Corning, #3894) at 100 μL/well (2×10⁵ cells/well) and centrifuged at 4° C. for 5 min, and the supernatant was discarded. Then, the serially diluted antibody molecules were added to the 96-well plate at 100 μL/well, and the mixtures were well mixed. The antibody molecules might serially diluted 3-fold from the highest final concentration 200 nM to obtain a total of 12 concentrations. hIgG1 iso (CrownBio, #C0001) was used as an isotype control. The cells were incubated at 4° C. for 1 h away from light. Then, the cells in each well were rinsed twice with 100 μL of pre-cooled FACS buffer (PBS buffer containing 0.5% BSA) and centrifuged at 500 g at 4° C. for 5 min, and then the supernatant was discarded. […] Then, the cells in each well were then rinsed twice with 200 μL of pre-cooled FACS buffer and centrifuged at 500 g at 4° C. for 5 min, and then the supernatant was discarded. Finally, a pre-cooled FACS buffer was added at 200 μL/well to resuspend the cells. The fluorescence signal values were read using a BD FACS CANTOII flow cytometer.
For the molecule B10, the binding result was “binds”.

Turning to B11, the binding result was “binds”.

Turning to B12, the binding result is given as “binds”.

Regarding B13, the binding result is “binds”.

Regarding B14, the binding result is given as “binds”.

On to B15, for which the binding result is listed as “binds”.

The next assay concerns the target T1, human 4-1BB on CHO-K1 cells. Kind of assay: FACS, CHO-K1/hu 4-1BB cells. (In general: A flow cytometer gives signals particle by particle.)
With B1, the binding result was “binds”.

As to B2, the EC50 was less than 300 pM.

B3 came in with an EC50 of less than 300 pM.

Turning to B4, the binding result was “binds”.

Consider B5, for which the binding result is “binds”.

B6: the binding result is “binds”.

With B7, the binding result is recorded as “binds”.

As for B8, the binding result is recorded as “binds”.

As for B9, the binding result was “binds”.

In a further assay the target is T2, human PD-L1 on CHO-K1 cells (human, UniProt Q9NZQ7 19-290).
T2 construct: whole, on cells; also called CHO-K1/hPDL1; CHO-K1/hPD-L1
T2 sequence (Q9NZQ7 19-290): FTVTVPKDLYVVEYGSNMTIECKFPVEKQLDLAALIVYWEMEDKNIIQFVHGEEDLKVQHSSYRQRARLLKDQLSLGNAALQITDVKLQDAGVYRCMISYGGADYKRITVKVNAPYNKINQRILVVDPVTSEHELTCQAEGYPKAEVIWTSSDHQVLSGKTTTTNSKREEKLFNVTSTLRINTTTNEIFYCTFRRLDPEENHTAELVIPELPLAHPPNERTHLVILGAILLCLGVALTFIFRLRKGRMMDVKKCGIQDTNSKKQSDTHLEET
As to the kind of experiment: FACS, CHO-K1/hPD-L1 cells.
For B10, the binding result is recorded as “binds”.

In the case of B11, the binding result is recorded as “binds”.

As to B12, the binding result was “binds”.

B13: the binding result was “binds”.

On to B14, for which the binding result is on record as “binds”.

As for B15, the binding result is listed as “binds”.

For a further assay, the target named is T3, histidine-labeled human 4-1BB protein (human, UniProt Q07011 24-186).
T3 construct: also called Human 4-1BB protein antigen (histidine-labeled); human 4-1BB protein and his tag (Acrobiosystem, #41B-H5227); not shown: histidine tag
T3 sequence (Q07011 24-186): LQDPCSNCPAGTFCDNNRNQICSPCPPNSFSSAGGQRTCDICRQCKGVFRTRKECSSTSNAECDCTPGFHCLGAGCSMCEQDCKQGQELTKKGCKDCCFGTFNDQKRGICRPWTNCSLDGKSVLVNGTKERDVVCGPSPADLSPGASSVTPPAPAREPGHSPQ
Kind of assay: BLI Octet RED96, AHC sensor, his-tagged antigen. How it is done:
(§1) Specifically, human 4-1BB protein and his tag (Acrobiosystem, #41B-H5227), or cynomolgus monkey 4-1BB protein and his tag (Acrobiosystem, #41B-052H4), were diluted to 400 nM with PBS buffer (pH 7.4) containing 0.1% (w/w) BSA and 0.02% (v/v) Tween 20, and incubated with the AHC sensor. A 40 nM 4-1BB antibody was incubated with the AHC sensor loaded with human 4-1BB protein or monkey 4-1BB protein at 30° C. for 3 min. The reaction mixture was incubated in PBS buffer (pH 7.4) containing 0.1% (v/w) BSA and 0.02% (v/v) Tween 20 at 30° C. for another 5 min The binding and separation signals between the 4-1BB antibody and 4-1BB protein were recorded by Octet Red 96 in real time. The affinity and association and dissociation constants were determined by Octet using software.
B2 showed a dissociation constant Kd of 25600 pM, a Response of 0.326, a dissociation rate constant (koff) of 0.00578 s⁻¹ and a kon of 226000 M⁻¹ s⁻¹.

Turning to B3, the affinity, expressed as Kd, was 12300 pM; the Response was 0.284; the off-rate (koff) is 0.00389 s⁻¹; the kon stood at 317000 M⁻¹ s⁻¹.

The target in another assay is T4, histidine-labeled cynomolgus monkey 4-1BB protein (cynomolgus monkey).
T4 construct: also called Monkey 4-1BB protein antigen (histidine-labeled); cynomolgus monkey 4-1BB protein and his tag (Acrobiosystem, #41B-052H4)
As to the kind of experiment: BLI Octet RED96, AHC sensor, his-tagged antigen. How it is done:
as §1
B2 yielded a Kd of 7410 pM, a Response of 0.274, a koff of 0.00112 s⁻¹ and a kon of 151000 M⁻¹ s⁻¹.

Molecule B3 yielded a Kd of 11000 pM, a Response of 0.283, a koff of 0.00237 s⁻¹ and a kon of 215000 M⁻¹ s⁻¹.

One may read the EC50 as the midpoint of the concentration-response curve. One may read the Kd as a measure of binding affinity in units of concentration. One may read the koff as a measure of how fast the partners let go of each other. In general, kon refers to the rate constant with which the complex forms.

These data come from patent US20230242658A1 (published 2023).
